According to patent publication CN106699884A (ZONHON BIOPHARMA INST INC; GENSUN INST BIOMEDICINE CO LTD, dated 2017):

Target: T1, 人C-反应蛋白 (human C-reactive protein, extracted from human plasma, HyTest) (human, UniProt P02741 19-224)
T1 construct: mature; Native protein from plasma; In the Western blot it was run on both non-denaturing and SDS gels; also called CRP; 天然CRP
T1 sequence (looked up): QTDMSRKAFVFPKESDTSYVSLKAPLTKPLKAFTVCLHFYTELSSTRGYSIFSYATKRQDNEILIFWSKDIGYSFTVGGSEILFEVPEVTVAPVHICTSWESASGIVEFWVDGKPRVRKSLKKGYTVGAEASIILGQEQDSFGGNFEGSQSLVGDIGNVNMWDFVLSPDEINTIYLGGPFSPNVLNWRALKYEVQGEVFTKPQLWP
Assay: Western blot, HRP-labelled scFv on native CRP from non-denaturing and SDS-PAGE gels

B1: 单链抗体P20 (anti-human C-reactive protein scFv P20) (scFv)
scFv: EVMLVESGGGLVKPGGSLKLSCAASGFTFSSYAMSWVRQTPERRLEWVATISTSGSDRYYPDSVKWRFTISRDSAKNILYLQMSSLRSEDTAMYYCARRGWDYWGQGTSVTVSAGGGGSGGGGSGGGGSDVVMTQTPLSLPVSLGDQASISCRSSQSLVHSNGNTYLHWYLQKSGQSPKLLLYKVSNRFSGVSDRFSGSGSGTDFTLKISRVEAEDLGVYFCSQNTHVPPTFGGGTKLEIKR
notes: Recombinant scFv made in E. coli BL21(DE3) and purified on HisTrap HP; It was HRP-labelled (P20-HRP) in the Western blot and was the coating antibody on nitrocellulose in the colloidal gold card; also called P20-scFv-(HIS)6; P20-HRP
B1: binds.
